Measured values from patent US20250353912A1 (published 2025).
Positions count from the first letter of the chain named. Where no end group is shown, it is not given here. [ ]: non-standard residue; d: D form.

T1: KRAS(G12C) residues 4-18 peptide conjugated to AMG-510
T1 peptide: YKLVVVGAC(AMG‑510)GVGKSA[dPEG4]K(long chain biotin)-NH2

B1: IBA1-21 (antibody, V domains shown)
VH: EVQLVESGGGLVQPGGSLRLSCAASGFTISSSSIHWVRQAPGKGLEWVASISSYYGYTSYADSVKGRFTISADTSKNTAYLQMNSLRAEDTAVYYCARYYSYSSGYGYYDYFDWGAMDYWGQGTLVTVSS
VL: DIQMTQSPSSLSASVGDRVTITCRASQSVSSAVAWYQQKPGKAPKLLIYSASSLYSGVPSRFSGSRSGTDFTLTISSLQPEDFATYYCQQMQYSGWLITFGQGTKVEIKR
B2: IBA1-8 (antibody, V domains shown)
VH: EVQLVESGGGLVQPGGSLRLSCAASGFTISYSSIHWVRQAPGKGLEWVASIYPSYGSTSYADSVKGRFTISADTSKNTAYLQMNSLRAEDTAVYYCARWQGYYQPALDYWGQGTLVTVSS
VL: DIQMTQSPSSLSASVGDRVTITCRASQSVSSAVAWYQQKPGKAPKLLIYSASSLYSGVPSRFSGSRSGTDFTLTISSLQPEDFATYYCQQPYYPLITFGQGTKVEIKR
B3: IBA1-13 (antibody, V domains shown)
VH: EVQLVESGGGLVQPGGSLRLSCAASGFTLSSSSIHWVRQAPGKGLEWVASIYSSYGYTYYADSVKGRFTISADTSKNTAYLQMNSLRAEDTAVYYCARYYYYWYGGMDYWGQGTLVTVSS
VL: DIQMTQSPSSLSASVGDRVTITCRASQSVSSAVAWYQQKPGKAPKLLIYSASSLYSGVPSRFSGSRSGTDFTLTISSLQPEDFATYYCQQGHDMNPVTFGQGTKVEIKR
B4: P2AMR-1 in the human IgG1 format (antibody, V domains shown)
VH: QVQLVQSEPEVKKPGSSVKLSCKASGGTFSTDAITWVRQAPGQGLEYMGGIIPLLDSVDYAQRFQGRVTVSADKSTGTAYMEVRSLGSEDTAKYYCAKWSSVDTGLDYWGQGTLVTVSS
VL: QSVLIQPRSVSGSPGQSVTISCTGTSSDVGGYNYVSWYQQHPGKAPKLMIYDVSKRPSGVPDRFSGSKSGNTASLTVSGLQAEDEADYYCGSYADTDTIVFGTGTKLTVL
B5: AMRA311-18 hIgG1 (antibody, V domains shown)
VH: EVQLVESGGGLVQPGGSLRLSCAASGFTISSSSIHWVRQAPGKGLEWVASIYSSSGSTSYADSVKGRFTISADTSKNTAYLQMNSLRAEDTAVYYCARVYSSRYWGWGVAFDYWGQGTLVTVSS
VL: B1 VL with M91W, Q92N, Y93W, S94A, G95D, W96Y, I98V
B6: AMRA311-17 hIgG1 (antibody, V domains shown)
VH: EVQLVESGGGLVQPGGSLRLSCAASGFTISSSSIHWVRQAPGKGLEWVASISSYSGSTYYADSVKGRFTISADTSKNTAYLQMNSLRAEDTAVYYCARYPYGSHVYTGLDYWGQGTLVTVSS
VL: B2 VL with P91S, Y92S, Y93S, P94S
B7: IBA1-19 (antibody, V domains shown)
VH: EVQLVESGGGLVQPGGSLRLSCAASGFTFSYSSIHWVRQAPGKGLEWVASIYPSSGYTSYADSVKGRFTISADTSKNTAYLQMNSLRAEDTAVYYCARGWWYWMAWDYAMDYWGQGTLVTVSS
VL: B1 VL with M91S, Q92W, Y93M, G95D, W96S
B8: AMRA311-16 hIgG1 (antibody, V domains shown)
VH: EVQLVESGGGLVQPGGSLRLSCAASGFTISSSSIHWVRQAPGKGLEWVAYISSYSGYTYYADSVKGRFTISADTSKNTAYLQMNSLRAEDTAVYYCARYWYGHYHSYFGLDYWGQGTLVTVSS
VL: B2 VL with P91S, Y92S, Y93S, P94S
B9: AMRA3-7D_CrossMab (bispecific antibody)
chain: EVQLLESGGGLVQPGGSLRLSCAASGFTFSTYAMNWVRQAPGKGLEWVSRIRSKYNNYATYYADSVKGRFTISRDDSKNTLYLQMNSLRAEDTAVYYCVRHGNFGNSYVSWFAYWGQGTLVTVSSASVAAPSVFIFPPSDEQLKSGTASVVCLLNNFYPREAKVQWKVDNALQSGNSQESVTEQDSKDSTYSLSSTLTLSKADYEKHKVYACEVTHQGLSSPVTKSFNRGEC
heavy 1: not shown
heavy 2: EVQLVESGGGLVQPGGSLRLSCAASGFTFSDYSIHWVRQAPGKGLEWVASISSSSGSTSYADSVKGRFTISADTSKNTAYLQMNSLRAEDTAVYYCARGGWYPAMDYWGQGTLVTVSSASTKGPSVFPLAPSSKSTSGGTAALGCLVEDYFPEPVTVSWNSGALTSGVHTFPAVLQSSGLYSLSSVVTVPSSSLGTQTYICNVNHKPSNTKVDEKVEPKSCDKTHTCPPCPAPEAAGGPSVFLFPPKPKDTLMISRTPEVTCVVVDVSHEDPEVKFNWYVDGVEVHNAKTKPREEQYNSTYRVVSVLTVLHQDWLNGKEYKCKVSNKALGAPIEKTISKAKGQPREPQVCTLPPSRDELTKNQVSLSCAVKGFYPSDIAVEWESNGQPENNYKTTPPVLDSDGSFFLVSKLTVDKSRWQQGNVFSCSVMHEALHNHYTQKSLSLSP
light: DIQMTQSPSSLSASVGDRVTITCRASQSVSSAVAWYQQKPGKAPKLLIYSASSLYSGVPSRFSGSRSGTDFTLTISSLQPEDFATYYCQQISYVKKLITFGQGTKVEIKRTVAAPSVFIFPPSDRKLKSGTASVVCLLNNFYPREAKVQWKVDNALQSGNSQESVTEQDSKDSTYSLSSTLTLSKADYEKHKVYACEVTHQGLSSPVTKSFNRGEC
B10: IBA1-7 (antibody, V domains shown)
VH: EVQLVESGGGLVQPGGSLRLSCAASGFTLSSSSIHWVRQAPGKGLEWVASISSYYGSTSYADSVKGRFTISADTSKNTAYLQMNSLRAEDTAVYYCARMHYSWQEYYSYDWGMDYWGQGTLVTVSS
VL: B1 VL with M91S, Q92Y, Y93W, S94W, G95K, W96S, I98V
B11: IBA1-4 (antibody, V domains shown)
VH: EVQLVESGGGLVQPGGSLRLSCAASGFTVSSSSIHWVRQAPGKGLEWVASIYSYSGSTYYADSVKGRFTISADTSKNTAYLQMNSLRAEDTAVYYCARQYSSSYYVWPGMDYWGQGTLVTVSS
VL: B1 VL with M91Y, Q92H, S94W, G95A, W96S

Tests used:
[1] = target: HLA-A*01:01 in complex with the BTK peptide … conjugated with Ibrutinib (human;, ibrutinib covalently bound to Cys); experiment: multiplex bead-binding assay
[2] = target: T1, KRAS(G12C) residues 4-18 peptide …; experiment: bead binding assay; apparent KD
[3] = target: RAS-AMG510; experiment: cell binding, flow cytometry (peptide-pulsed Raji cells); apparent KD
[4] = target: CD3 on Jurkat cells (UniProt P07766 23-207); experiment: cell binding, flow cytometry

Binder	Kd [1] [nM]	other results
B1	0.04	
B2	62	
B3	0.137	
B4		Kd [2]: 0.2 nM
B5		Kd [3]: 52 nM
B6		Kd [3]: 180 nM
B7	0.52	
B8		Kd [3]: 71 nM
B9		Kd [4]: 200 nM
B10	170	
B11	0.65	
